Data set [1] deals with T1, MBP-BFP-TLS-GFP-6xHis (TLS/FUS) (UniProt P35637 1-526). Put plainly: FRET; Anisotropy: 5 mM Tris-HCl pH 7.6, 25 mM NaCl, 0.1% CHAPS, 2.5 mM glucose, 0.5 mM DTT, 25 C, 100 nM TAMRA-RNA; FRET buffer not in material. The conditions noted are these: protein: recombinant; tags: N-term MBP, TagBFP; C-term TagGFP2, 6xHis.
Data set [2] deals with T1, MBP-BFP-TLS-GFP-6xHis (TLS/FUS). The description is as above. As to conditions: protein: recombinant; tags: N-term MBP, TagBFP; C-term TagGFP2, 6xHis. This is another data set of the same source.
Data set [3] has the same target. The description is as above. The conditions noted are these: protein: recombinant, tags: N-term MBP, TagBFP, C-term TagGFP2, 6xHis.
Data set [4] has the same target. In words: fluorescence anisotropy; 100 nM RNA; Anisotropy: 5 mM Tris-HCl pH 7.6, 25 mM NaCl, 0.1% CHAPS, 2.5 mM glucose, 0.5 mM DTT, 25 C, 100 nM TAMRA-RNA; FRET buffer not in material. The conditions noted are these: protein: recombinant; tags: N-term MBP, TagBFP; C-term TagGFP2, 6xHis; label: TAMRA.

T1 sequence (P35637 whole entry): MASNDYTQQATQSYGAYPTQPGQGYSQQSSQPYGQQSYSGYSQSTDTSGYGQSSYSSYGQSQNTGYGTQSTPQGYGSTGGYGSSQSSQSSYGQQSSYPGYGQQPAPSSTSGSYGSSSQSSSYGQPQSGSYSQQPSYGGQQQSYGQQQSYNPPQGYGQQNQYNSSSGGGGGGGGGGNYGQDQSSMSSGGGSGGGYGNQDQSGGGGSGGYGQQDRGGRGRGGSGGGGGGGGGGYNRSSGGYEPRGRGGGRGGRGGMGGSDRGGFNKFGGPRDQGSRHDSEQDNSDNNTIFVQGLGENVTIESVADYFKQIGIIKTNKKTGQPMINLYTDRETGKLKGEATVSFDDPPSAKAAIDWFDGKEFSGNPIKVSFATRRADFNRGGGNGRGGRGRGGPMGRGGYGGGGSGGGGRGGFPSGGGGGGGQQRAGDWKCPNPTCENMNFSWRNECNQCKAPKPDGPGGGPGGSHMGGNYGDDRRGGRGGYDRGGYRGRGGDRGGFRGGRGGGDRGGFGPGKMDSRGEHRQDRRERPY

B1: D31 (ssDNA)
DNA: GTTAAGAGGGTACGGTGGTTTGATGACACTG
As to B1, the binding signal in data set [1] is 0.0594 ± 0.0039 |dE| FRET.

B2: R12 (ssRNA)
RNA: GUUAAGAGGGUA
For B2, the binding result in data set [2] is reported as “binds”.

B3: R13 (5'-pncRNA) (ssRNA)
RNA: GUUAAGAGGGUAC
For the molecule B3, the binding signal in data set [3] was 0.0663 ± 0.0091 |dE| FRET.

B4: R19 (3'-pncRNA) (structured_RNA)
RNA: CGGUGGUUUGAUGACACUG
As to B4, the binding signal in data set [3] (stem-loop) was 0.055 ± 0.0099 |dE| FRET.

B5: D19 (ssDNA)
DNA: CGGTGGTTTGATGACACTG
For the molecule B5, the binding signal in data set [1] is 0.0309 ± 0.0025 |dE| FRET.

B6: D13 (ssDNA)
DNA: GTTAAGAGGGTAC
B6: the binding signal in data set [1] was 0.0175 ± 0.0018 |dE| FRET.

B7: R6 (ssRNA)
RNA: GAGGGU
Turning to B7, in data set [2], the binding result was “binds”.

B8: TAMRA-U31 (ssRNA)
RNA: UUUUUUUUUUUUUUUUUUUUUUUUUUUUUUU
Consider B8, for which the binding result in data set [4] is listed as “binds”.

The record behind these values is publication PMC7021683, “RNA sequence and length contribute to RNA-induced conformational change of TLS/FUS”.
